From publication PMC10149471, “Assessing the applicability of ^19F labeled tryptophan residues to quantify protein dynamics” (Journal of Biomolecular Nmr, 2023) come the findings set out here.

B1: Dcp1 from S. pombe, residues 1-127 (natural protein, UniProt Q9P805 1-127, looked up)
chain: MEDENILRNAVNLQVLKFHYPEIESIIDIASHVAVYQFDVGSQKWLKTSIEGTFFLVKDQRARVGYVILNRNSPENLYLFINHPSNVHLVDRYLIHRTENQHVVGLWMFDPNDMSRIFNIVKESLLR
notes: Dcp1, S. pombe, UniProt Q9P805, residues 1-127; also called internal ID 48; source: E. coli BL21(DE3) CodonPlus-RIL, purified (Ni-NTA, TEV cleavage, second Ni-NTA, SEC)

Experiment in all cases: NMR spectra of a prepared complex; Dcp1 and Dcp2 expressed separately, complex prepared with one partner NMR active; 303 K; 125 mM NaCl, 25 mM HEPES, pH 7.3, 1 mM DTT; 100-500 uM protein
Holding throughout (details): both partners purified

The target of experiment [1] is T1, Dcp2 from S. pombe, regulatory and catalytic domains, residues 1-243 (S. pombe, UniProt O13828 1-243).
T1 construct: Dcp2, S. pombe, residues 1-243 (NRD 1-95 and catalytic NUDIX domain 96-243); also called Dcp2-NRD-CTD; internal ID 223; source: E. coli BL21(DE3) CodonPlus-RIL, purified (Ni-NTA, TEV cleavage, second Ni-NTA, SEC)
T1 sequence (looked up): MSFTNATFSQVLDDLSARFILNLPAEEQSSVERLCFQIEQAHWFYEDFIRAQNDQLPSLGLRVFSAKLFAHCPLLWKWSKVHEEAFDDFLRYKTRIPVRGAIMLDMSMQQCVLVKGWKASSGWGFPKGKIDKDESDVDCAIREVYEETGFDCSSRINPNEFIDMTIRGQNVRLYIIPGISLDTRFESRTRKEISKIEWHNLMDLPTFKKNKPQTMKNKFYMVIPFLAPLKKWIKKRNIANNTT

Experiment [2] has as its target T2, Dcp2 from S. pombe, regulatory and catalytic domains, residues 1-243, 5-fluorotryptophan labeled (S. pombe, UniProt O13828 1-243, the seven tryptophan residues are replaced with 5-fluorotryptophan).
T2 construct: Dcp2, S. pombe, residues 1-243 (NRD 1-95 and catalytic NUDIX domain 96-243); also used with isoleucine and methionine methyl 13C labeling; also called 5-fluorotryptophan labeled Dcp2-NRD-CTD; source: E. coli BL21(DE3) CodonPlus-RIL with 5-fluoroindole added, purified (Ni-NTA, TEV cleavage, second Ni-NTA, SEC)
T2 sequence (looked up): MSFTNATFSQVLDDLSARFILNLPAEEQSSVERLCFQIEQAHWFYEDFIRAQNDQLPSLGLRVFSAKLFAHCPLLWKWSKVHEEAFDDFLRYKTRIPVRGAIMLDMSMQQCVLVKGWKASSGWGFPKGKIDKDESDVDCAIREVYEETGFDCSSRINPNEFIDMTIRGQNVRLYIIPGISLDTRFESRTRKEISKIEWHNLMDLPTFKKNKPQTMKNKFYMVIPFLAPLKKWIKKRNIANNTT

The target of experiment [3] is T3, Dcp1 from S. pombe, residues 1-127, 15N and 5-fluorotryptophan labeled (S. pombe, UniProt Q9P805 1-127, 5-fluorotryptophan at Trp 45 and 107).
T3 construct: Dcp1, S. pombe, UniProt Q9P805, residues 1-127; the tryptophans are replaced with 5-fluorotryptophan; also called 5-fluorotryptophan labeled Dcp1; source: E. coli BL21(DE3) CodonPlus-RIL with 5-fluoroindole added, purified (Ni-NTA, TEV cleavage, second Ni-NTA, SEC)
T3 sequence (looked up): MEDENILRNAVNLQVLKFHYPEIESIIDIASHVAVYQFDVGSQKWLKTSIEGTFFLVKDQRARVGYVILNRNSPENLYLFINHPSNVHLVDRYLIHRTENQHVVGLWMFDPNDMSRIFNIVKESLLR

In experiment [4] the target is B1.

Consider B1, for which the binding result in experiment [1] and in experiment [2] was “binds” each time.

B2: Dcp2 from S. pombe, N-terminal regulatory domain, residues 1-95 (domain or fragment, UniProt O13828 1-95, looked up)
chain: MSFTNATFSQVLDDLSARFILNLPAEEQSSVERLCFQIEQAHWFYEDFIRAQNDQLPSLGLRVFSAKLFAHCPLLWKWSKVHEEAFDDFLRYKTR
notes: Dcp2, S. pombe, residues 1-95 (N-terminal regulatory domain); Used unlabeled or 15N labeled, depending on the sample; also called Dcp2 NRD; NRD of Dcp2; source: E. coli BL21(DE3) CodonPlus-RIL, purified (Ni-NTA, TEV cleavage, second Ni-NTA, SEC)
Turning to B2, the binding result in experiment [3] and in experiment [4] was “binds” in each case.

B3: Dcp2 from S. pombe, N-terminal regulatory domain, residues 1-95, 5-fluorotryptophan labeled (domain or fragment, UniProt O13828 1-95, looked up)
chain: MSFTNATFSQVLDDLSARFILNLPAEEQSSVERLCFQIEQAHWFYEDFIRAQNDQLPSLGLRVFSAKLFAHCPLLWKWSKVHEEAFDDFLRYKTR
modifications: 5-fluorotryptophan at the three tryptophan residues (W43 among them)
notes: Dcp2, S. pombe, residues 1-95 (N-terminal regulatory domain); also called 5-fluorotryptophan labeled Dcp2 NRD; source: E. coli BL21(DE3) CodonPlus-RIL with 5-fluoroindole added, purified (Ni-NTA, TEV cleavage, second Ni-NTA, SEC)
As to B3, the binding result in experiment [4] is reported as “binds”.

B4: Dcp2 from S. pombe, residues 1-95, W43A assignment mutant (domain or fragment, UniProt O13828 1-95, looked up)
chain: MSFTNATFSQVLDDLSARFILNLPAEEQSSVERLCFQIEQAHAFYEDFIRAQNDQLPSLGLRVFSAKLFAHCPLLWKWSKVHEEAFDDFLRYKTR
notes: Dcp2, S. pombe, residues 1-95 with W43A; also called Dcp2 NRD W43A; internal ID 1070; source: E. coli BL21(DE3) CodonPlus-RIL, purified (Ni-NTA, TEV cleavage, second Ni-NTA, SEC)
For B4, the binding result in experiment [4] is listed as “binds”.
